Source: the supplement of paper PMC9170038

Experiments:
MS2 coat protein [1] = experiment: apparent KD of MS2 coat protein, switch OFF state (with FMN for OFF switches, without FMN for ON switches); designed switch direction (-1 OFF switch, 1 ON switch): 1; higher = weaker reporter binding; details: FMN input: 0 or 200 uM; Eterna round: R93 (includes R88 designs)
Outline: (§1)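 Designed RNA switches, transcribed on-chip from Illumina sequencing clusters, were titrated with SNAP-549-labelled MS2 coat protein from 0.7 or 1.5 nM to 3 µM in twofold steps. The solution was 100 mM Tris-HCl pH 7.5, 80 mM KCl, 4 mM MgCl2, with constant ligand or without it. Apparent KD is the median over each design's normalised cluster binding-curve fits.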

MS2 coat protein [2] = experiment: apparent KD of MS2 coat protein, switch ON state; designed switch direction (-1 OFF switch, 1 ON switch): 1; higher = weaker reporter binding; details: FMN input: 0 or 200 uM; Eterna round: R93 (includes R88 designs)
Outline: as §1

Sequence | apparent KD of MS2 coat protein (MS2 coat protein [1]) [nM] | apparent KD of MS2 coat protein (MS2 coat protein [2]) [nM]
GGGAGACAUGAGGAUCACCCAUGUGAGAAGAGGCGAGGAUAUCGAAAGAAAGAAGAGAAACGAGAAGGCGCGAGAC [salish99-SS1-061] | 45.1 | 30.4
UAGAGGAAGAGAGAGGAUAUCCAAAGGAAAACAUGAGGAUCACCCAUGUAAAAGGUAGGAAAUUGGGAGAAGGCUCAAGAGAGAG [salish99-ss2-062] | 30.3 | 30.9
AAAAAAAAAAGACAGGAUAUCCAAAAAAAAACAUGAGGAUCACCCAUGUAAAAAAAAAAAAAAUGGGAGAAGGGUCAAAAAAAAAA [Louisiana 5 - Jieux - Same State 2] | 36.5 | 21.9
AAAAAACAUGAGGAUCACCCAUGUAAAAAUAUGGGAGGAUAUUCAAACACGAAAGUGAAAGAAGAAGGCCUAAAAA [SS! MT 18] | 139 | 15
UAGGGAACAGGGUAGGAUAUGCAUGGUCGUACAUGAGGAUCACCCAUGUAGCCUAGAAAAUAAAUGCAGAAGGACCAAAAGAAAA [Ononmaesra] | 48.3 | 16.5
AUAAAUAAAAGCGAGGAUAUCCAAAAAAAAACAUGAGGAUCACCCAUGUAAAAGAAAAUAAAAUGGGAGAAGGCGCAAAAUAAAU [SS2 M 9] | 7.54 | 21.2
AGGAAACAUGAGGAUCACCCAUGUAGAAAUAUGGGAGGAUAUACAAAGACGAAAGUCAAAGUAGAAGGCCUAAAAA [Mat - Same State 1 - Mod - D151] | 57.1 | 17.6
AGAAAUAAACCGAAGGAUAUCCAAACCUAAACAUGAGGAUCACCCAUGUAAAAGAAAAUAAAAUGGGAGAAGGUCGGAAAUAAGA [Designing denovo 13] | 25.3 | 17.7
CGAAGACAUGAGGAUCACCCAUGUGGGAAUAUGGGAGGAUAUACAAAGACGAGAGUCAGAGUAGAAGGCCUAGGAU [salish99-ss1-105] | 78.7 | 29.5
AAGAAACAUGAGGAUCACCCAUGUCAAGAGAGACUAGGAUAUCUGAAUUAAUUAAAUUAAGGAGAAGGAGUGAAAA [71%, Same state of confusion2, 2] | 88.6 | 35.9
AAAAAAUAAAAAAAGGAUAUAAAUGCUAGAACAUGAGGAUCACCCAUGUACUAGCAAAAAAUAAAAAAGAAGGAAAAAUAAAAAA [SS2: MS2 18] | 14.8 | 15.6
GUGAGGAAGAGAGAGGAUAUCCAAAGGAAAACAUGAGGAUCACCCAUGUAAAAGGUAGGAAAUUGGGAGAAGGCUCAAGAGAGAG [salish99-ss2-067] | 34.7 | 40.2
AAAAAACAUGAGGAUCACCCAUGUCCUCGGACGUGAGGAUAUGUACAGACUUCGGUCUGUACAGAAGGCACGAAAA [SS1 - 1036] | 319 | 503
GGGAAGAACAGAGAGGAUAUCCAAAGGAAAACAUGAGGAUCACCCAUGUAAAAGGAAGGAAAUUGGGAGAAGGCUCAAAAGAGAA [salish99-ss2-023] | 36.4 | 32.5
GGGAGGAAGAGAGAGGAUAUCCAAAGGAAAACAUGAGGAUCACCCAUGUAAAAGGUAGGAAAUUGGGAGAAGGCUCAAGAGAAGG [salish99-ss2-050] | 26.6 | 18.2
AAAAAACAUGAGGAUCACCCAUGUGCAAAAUUCGCAGGAUAUUUUUUUUUUAAAUGAGAGGGAGAAGGGUGUAAAA [Nob's Hobby 22 - Jieux - Same State 1] | 33 | 27.4
AGAAUAAAAACAGAGGAUAUCCAAAAGAAAACAUGAGGAUCACCCAUGUAAAAGAAAAUAAAAUGGGAGAAGGCUGAAAUAAAGA [Mat - Same State 2 - Eli mod - D97] | 33.2 | 14.9
AACAAUCUAUCUGAGGAUAUCAUUUCAAAGACAUGAGGAUCACCCAUGUCCAGGAAAACUGGAAAUGAGAAGGCAGAUAGAUUGA [SS2: 1106] | 9.31 | 11.7
AAUAGACAUGAGGAUCACCCAUGUAGAAUUAUGGGAGGAUAUACAAAGACGAGAGUCAGAGUAGAAGGCCUAGGAA [salish99-ss1-148] | 71.5 | 23.6
AAGAAACAUGAGGAUCACCCAUGUGGAAAUAUGGGAGGAUAUACAAGGACGUAAGUCAAGGUAGAAGGCCUAAGAA [Mat - Same State 1 - Meechl mod - D138] | 134 | 21.5
GAAAAAAAAAGGCAGGAUAUCCAAAAAAAAACAUGAGGAUCACCCAUGUAAAAAAAAAAAAAAUGGGAGAAGGGCCAAAAAAAAA [Mat - Same State 2 - Mod - 151] | 35.2 | 25.5
AAAAAACAUGAGGAUCACCCAUGUAAAAAAAUGGGAGGAUAUAUGAAAAAAAAAAAAAAAAUAGAAGGCCUGAAAA [same state 11] | 64.2 | 399

Sequence | apparent KD of MS2 coat protein (MS2 coat protein [1]) [nM] | apparent KD of MS2 coat protein (MS2 coat protein [2]) [nM]
AAAAGGCUAAACUAGGAUAUGGGUGUCUAAACAUGAGGAUCACCCAUGUGAUGGCAAAACAAAGCUCAGAAGGAGUGGUAGCCCA [Riquceri] | 56.7 | 12.4
AAGAGACAUGAGGAUCACCCAUGUAGGAUUAUGGGAGGAUAUACAAAGACGAGAGUCAGAGUAGAAGGCCUAGGAA [salish99-ss1-129(!)] | 65.1 | 24.5
AAUCCAAAUAGUCAGGAUAUCAAAAAUAAGACAUGAGGAUCACCCAUGUACUAAGUAAAAGUAAAUGAGAAGGGACAGGGUGAAA [JR_SS002_Sub402] | 145 | 138
AAAAUAAAAUAAAAGGAUAUAAAAUAAAAUACAUGAGGAUCACCCAUGUAUAAAAUAAAAAAAUAAAAGAAGGAAUAAAAAUAAA [SS2 504: MS2 4] | 11.2 | 16.4
AACAAUCUAUCUGAGGAUAUCAUGUAAAAGACAUGAGGAUCACCCAUGUAGCAGGAAACUGCACAUGAGAAGGCAGAUAGAUUGA [SS2: 1124] | 19.6 | 15.9
AGGAGACAUGAGGAUCACCCAUGUGAGAAGAGGCGAGGAUAUCGAAAGAAAGAAGAGAAACGAGAAGGCGCGAGCG [salish99-SS1-028] | 34.3 | 26.7
AAAAGACAUGAGGAUCACCCAUGUCAAAACGUGGGAGGAUAUGCAUGGAAAACAUGCUGUGCAGAAGGCCCGUGUC [SS1 - 21] | 46.4 | 27.5
GGAAAUAACAGAGAGGAUAUCCAAAGGAAAACAUGAGGAUCACCCAUGUAAAAGGAAGGAAAUUGGGAGAAGGCUCAAAAUAGAA [salish99-ss2-019] | 26.7 | 15.1
AAAUAAAAAAAAAAGGAUAUUCAUGUAAAAACAUGAGGAUCACCCAUGUAAAAAAAUAAAAAUAAAAAGAAGGAAAAAUAAAAAA [SS2: 85 No MS2] | 164 | 77.1
AAAAAGGAGAGAGAGGAUAUCCAAAGGAAAACAUGAGGAUCACCCAUGUAAAAGGUAGGAAAUUGGGAGAAGGCUCAAGAGAGAG [salish99-ss2-107] | 36.5 | 17.6
GGGAGGAAGAGAGAGGAUAUCCAAAGGAAAACAUGAGGAUCACCCAUGUAAAAGGUAGGAAAUUGGGAGAAGGCUCAAAAGAGGC [salish99-ss2-042] | 46.6 | 19.4
AUAAAACAUGAGGAUCACCCAUGUCCGACAAAUCAAGGAUAUGAGAGCCUAACCAGGCUGUUAGAAGGUGAAAGAU [Riteat] | 192 | 229
AAACCACAUGAGGAUCACCCAUGUGAAAUACACAUAGGAUAUGCGAAAAGAAACAAAGAAGCAGAAGGGUGAAAAA [75%, Ex sub1, 17] | 41.3 | 35.4
AAAAAACAUGAGGAUCACCCAUGUAAAUCUCAUGUAGGAUAUACAAAAAAAAAAAAAAAAGUAGAAGGACAAAAAA [Omei A variation 5] | 75.2 | 125
AAAAAACAUGAGGAUCACCCAUGUAAAAAAAACGCAGGAUAUCCCUUUUUUAAAUGGGAGGGAGAAGGGUGAAAAA [Nob's Hobby 13 - Jieux - Same State 1] | 43.8 | 22.4
AAAUAAAGGACUAAGGAUAUAUCGCAUGACACAUGAGGAUCACCCAUGUGGUAACACAGAGGGUGAUAGAAGGUAGUCCACAAACA [Pariah 6 (MS2 Riboswitches - Same State 2)] | 287 | 42.8
UGGAGACAUGAGGAUCACCCAUGUAGAAGGAUGGGAGGAUAUACAAAGACGAGAGUCAGAGUAGAAGGCCUAGGAG [salish99-ss1-188] | 42.8 | 31.3
UGAAAGGAGAGAGAGGAUAUCCAAAGGAAAACAUGAGGAUCACCCAUGUAGAAGGUAGGAAAUUGGGAGAAGGCUCAAGAAAGAG [salish99-ss2-139] | 35.4 | 50.7
ACUAUACAUGAGGAUCACCCAUGUUAGCUGGGCGAAGGAUAUGUAGAUGGAUAAAAAUAUGCAGAAGGUCGAUAAC [JR_SS001_Sub210] | 77.2 | 39.5
AAAGACAUGGUGCAGGAUAUAUUAAUAGUCACAUGAGGAUCACCCAUGUUCAUAUAUAUGAACGAGUAGAAGGGCGAUGAAAAAA [SameState2 Malc#6] | 90.8 | 98
AAAUAACAUGAGGAUCACCCAUGUUGCAGCGGUUGAGGAUAUGUGGGUGAAAAUAGCAUGGCAGAAGGCGAGUGUA [SameState1 Malc#26] | 71.9 | 71.3
